test system: AncSZ; test: phosphorylation enrichment, bacterial display (enrichment ratio); higher = better substrate or ligand; peptides without Tyr show the background
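Also: 11-residue human phosphosite peptides and single-mutation variants displayed on the E. coli surface, counted by deep sequencing, each peptide's frequency after selection divided by its frequency in the unselected input library; frequency after pTyr selection over input frequency; kinase dosed for 20-30% of maximal phosphorylation in three min.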

Sequence | phosphorylation enrichment
KLQQWYREPRS [GPI_Y17_H20P] | 0.85
EESREYDRLFE [PIK3R1_Y463_K459E_YF] | 1.46
LQEQNYPAVDS [FAM114A1_Y115_L116P] | 2.01
PDKRIYQFTAS [SKAP2_Y197_A202S] | 0.691
VTRAKYFIRDE [GNAS_Y339] | 0.654
CLAQRYLIWEC [SCN5A_Y694_R689C] | 1.29
HVLEEYKPKQG [SAXO2_Y37_P34L] | 0.5
NRSSLYLVAGP [KIAA1614_Y1083] | 0.915
PQAVTYAEVKH [LILRB4_Y360_K362E] | 0.872
CTTIPYNYMCN [TP53_Y234_H233P] | 1.18
YGSSSYRGAGG [RPA2_Y14_G15R] | 0.491
SVSVNYGDQVQ [GRAP_Y101] | 0.748
MSNVPYVMNRG [ACAT1_Y161] | 0.734
MARDIYQASFF [LTK_Y672_R673Q_YF] | 0.966
AIYEGYALPHA [ACTC1_Y171_P166A] | 1.77
QPDFLYDHIQP [TRRAP_Y862] | 2.58
LGSVVYAHSKE [KCNQ2_Y226] | 0.527
NAGDFYDLFGG [PTPN11_Y63_T59A_YF] | 1.11
ECKETYHEGEC [PRKN_Y372_A371T] | 1.47
FPRAWCRRSIA [KIAA1109_Y4272_Y4272C] | 0.908
PLDGGYFTLQI [TP53_Y327_E326G] | 1.79
QCTSAYPLQPE [NANS_Y188] | 1.51
CQLENYCNGGG [INS_Y108_Y103C] | 0.925
QSSEGYGLGDR [KIAA1210_Y564] | 1.03
FGAHNYHPLPV [OAT_Y55_YF] | 1.64
ALAHKYDGGGG [HBB_Y146_H147D] | 0.985
YSGDYYRIQGR [DDR2_Y741] | 1.82
FGEFRYRSVIK [CFTR_Y517_D513G_YF] | 0.728
EKRDAYVSRLN [GSR_Y150] | 0.547

biological target: EPHB1 (UniProt P54762); test: as above
Sequence (P54762 whole entry, looked up): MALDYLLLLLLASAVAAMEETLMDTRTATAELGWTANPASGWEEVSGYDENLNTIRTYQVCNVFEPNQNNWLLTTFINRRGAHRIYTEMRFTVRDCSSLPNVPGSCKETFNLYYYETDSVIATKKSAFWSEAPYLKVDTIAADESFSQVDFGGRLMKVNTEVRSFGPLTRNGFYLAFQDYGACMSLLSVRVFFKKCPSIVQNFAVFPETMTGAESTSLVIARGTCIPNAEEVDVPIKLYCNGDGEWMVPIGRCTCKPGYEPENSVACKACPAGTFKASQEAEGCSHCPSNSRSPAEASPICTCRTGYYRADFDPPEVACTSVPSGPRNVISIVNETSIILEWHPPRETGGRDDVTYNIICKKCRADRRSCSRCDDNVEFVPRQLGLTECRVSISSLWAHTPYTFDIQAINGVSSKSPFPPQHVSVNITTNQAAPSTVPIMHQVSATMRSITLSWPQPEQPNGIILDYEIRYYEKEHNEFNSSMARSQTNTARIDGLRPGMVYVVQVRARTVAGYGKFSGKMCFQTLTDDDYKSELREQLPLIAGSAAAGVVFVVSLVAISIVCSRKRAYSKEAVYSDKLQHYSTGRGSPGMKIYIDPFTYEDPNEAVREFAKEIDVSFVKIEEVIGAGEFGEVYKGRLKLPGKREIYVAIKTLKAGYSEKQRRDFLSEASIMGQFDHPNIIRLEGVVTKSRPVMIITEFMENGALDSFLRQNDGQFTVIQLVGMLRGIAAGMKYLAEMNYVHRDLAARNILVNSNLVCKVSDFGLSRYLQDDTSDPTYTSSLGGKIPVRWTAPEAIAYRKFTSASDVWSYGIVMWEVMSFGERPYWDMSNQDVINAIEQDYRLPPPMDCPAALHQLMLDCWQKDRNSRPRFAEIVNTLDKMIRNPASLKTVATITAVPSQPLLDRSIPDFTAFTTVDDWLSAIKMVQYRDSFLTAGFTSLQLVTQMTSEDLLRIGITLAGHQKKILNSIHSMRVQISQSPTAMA

Sequence | phosphorylation enrichment
KLQQWYREPRS [GPI_Y17_H20P] | 0.44
EESREYDRLFE [PIK3R1_Y463_K459E_YF] | 0.489
LQEQNYPAVDS [FAM114A1_Y115_L116P] | 1.37
PDKRIYQFTAS [SKAP2_Y197_A202S] | 0.491
VTRAKYFIRDE [GNAS_Y339] | 0.356
CLAQRYLIWEC [SCN5A_Y694_R689C] | 0.836
HVLEEYKPKQG [SAXO2_Y37_P34L] | 0.487
NRSSLYLVAGP [KIAA1614_Y1083] | 0.591
PQAVTYAEVKH [LILRB4_Y360_K362E] | 1.94
CTTIPYNYMCN [TP53_Y234_H233P] | 0.528
YGSSSYRGAGG [RPA2_Y14_G15R] | 0.393
SVSVNYGDQVQ [GRAP_Y101] | 0.443
MSNVPYVMNRG [ACAT1_Y161] | 0.368
MARDIYQASFF [LTK_Y672_R673Q_YF] | 2.15
AIYEGYALPHA [ACTC1_Y171_P166A] | 20.8
QPDFLYDHIQP [TRRAP_Y862] | 5.27
LGSVVYAHSKE [KCNQ2_Y226] | 0.473
NAGDFYDLFGG [PTPN11_Y63_T59A_YF] | 0.651
ECKETYHEGEC [PRKN_Y372_A371T] | 0.608
FPRAWCRRSIA [KIAA1109_Y4272_Y4272C] | 0.519
PLDGGYFTLQI [TP53_Y327_E326G] | 1.2
QCTSAYPLQPE [NANS_Y188] | 0.719
CQLENYCNGGG [INS_Y108_Y103C] | 0.681
QSSEGYGLGDR [KIAA1210_Y564] | 0.731
FGAHNYHPLPV [OAT_Y55_YF] | 0.573
ALAHKYDGGGG [HBB_Y146_H147D] | 0.464
YSGDYYRIQGR [DDR2_Y741] | 5.47
FGEFRYRSVIK [CFTR_Y517_D513G_YF] | 0.558
EKRDAYVSRLN [GSR_Y150] | 0.455

biological target: EPHB2 (UniProt P29323); test: as above
Sequence (P29323 whole entry, looked up): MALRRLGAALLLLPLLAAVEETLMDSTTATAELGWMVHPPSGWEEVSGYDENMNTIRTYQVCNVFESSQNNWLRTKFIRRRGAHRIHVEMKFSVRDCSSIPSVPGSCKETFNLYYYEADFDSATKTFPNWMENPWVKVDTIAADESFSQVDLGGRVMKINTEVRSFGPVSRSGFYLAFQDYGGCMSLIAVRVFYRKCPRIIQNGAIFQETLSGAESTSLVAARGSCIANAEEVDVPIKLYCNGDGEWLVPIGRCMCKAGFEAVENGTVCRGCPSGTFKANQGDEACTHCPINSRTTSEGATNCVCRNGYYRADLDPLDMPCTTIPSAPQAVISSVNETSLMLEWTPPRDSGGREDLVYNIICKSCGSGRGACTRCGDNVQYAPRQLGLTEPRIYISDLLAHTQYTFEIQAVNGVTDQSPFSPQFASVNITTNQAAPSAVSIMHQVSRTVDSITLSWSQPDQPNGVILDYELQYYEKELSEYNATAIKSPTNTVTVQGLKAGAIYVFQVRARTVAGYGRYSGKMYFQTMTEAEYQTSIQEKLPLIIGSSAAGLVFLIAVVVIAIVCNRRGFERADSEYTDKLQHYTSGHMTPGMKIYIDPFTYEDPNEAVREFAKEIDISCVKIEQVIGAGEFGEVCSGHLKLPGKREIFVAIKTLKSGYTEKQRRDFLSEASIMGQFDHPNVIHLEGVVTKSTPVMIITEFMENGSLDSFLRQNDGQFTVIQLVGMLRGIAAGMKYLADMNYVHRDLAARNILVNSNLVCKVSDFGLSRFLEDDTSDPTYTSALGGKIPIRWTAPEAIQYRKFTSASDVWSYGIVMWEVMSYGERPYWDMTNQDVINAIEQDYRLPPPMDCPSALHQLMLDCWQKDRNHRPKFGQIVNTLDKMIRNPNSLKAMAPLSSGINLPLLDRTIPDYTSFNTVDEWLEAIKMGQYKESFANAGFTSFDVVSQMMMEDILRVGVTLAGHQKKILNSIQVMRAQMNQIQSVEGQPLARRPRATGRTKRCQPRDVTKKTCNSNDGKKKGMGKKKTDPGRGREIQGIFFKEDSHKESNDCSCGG

Sequence | phosphorylation enrichment
KLQQWYREPRS [GPI_Y17_H20P] | 0.712
EESREYDRLFE [PIK3R1_Y463_K459E_YF] | 0.681
LQEQNYPAVDS [FAM114A1_Y115_L116P] | 1.26
PDKRIYQFTAS [SKAP2_Y197_A202S] | 0.629
VTRAKYFIRDE [GNAS_Y339] | 0.405
CLAQRYLIWEC [SCN5A_Y694_R689C] | 0.646
HVLEEYKPKQG [SAXO2_Y37_P34L] | 0.683
NRSSLYLVAGP [KIAA1614_Y1083] | 0.517
PQAVTYAEVKH [LILRB4_Y360_K362E] | 1.16
CTTIPYNYMCN [TP53_Y234_H233P] | 0.509
YGSSSYRGAGG [RPA2_Y14_G15R] | 0.334
SVSVNYGDQVQ [GRAP_Y101] | 0.483
MSNVPYVMNRG [ACAT1_Y161] | 0.421
MARDIYQASFF [LTK_Y672_R673Q_YF] | 1.7
AIYEGYALPHA [ACTC1_Y171_P166A] | 30.1
QPDFLYDHIQP [TRRAP_Y862] | 3.31
LGSVVYAHSKE [KCNQ2_Y226] | 0.437
NAGDFYDLFGG [PTPN11_Y63_T59A_YF] | 0.564
ECKETYHEGEC [PRKN_Y372_A371T] | 0.728
FPRAWCRRSIA [KIAA1109_Y4272_Y4272C] | 0.484
PLDGGYFTLQI [TP53_Y327_E326G] | 0.776
QCTSAYPLQPE [NANS_Y188] | 0.813
CQLENYCNGGG [INS_Y108_Y103C] | 0.696
QSSEGYGLGDR [KIAA1210_Y564] | 0.754
FGAHNYHPLPV [OAT_Y55_YF] | 0.677
ALAHKYDGGGG [HBB_Y146_H147D] | 0.655
YSGDYYRIQGR [DDR2_Y741] | 2.72
FGEFRYRSVIK [CFTR_Y517_D513G_YF] | 0.559
EKRDAYVSRLN [GSR_Y150] | 0.434

biological target: FGFR1 (UniProt P11362); test: as above
Sequence (P11362 whole entry, looked up): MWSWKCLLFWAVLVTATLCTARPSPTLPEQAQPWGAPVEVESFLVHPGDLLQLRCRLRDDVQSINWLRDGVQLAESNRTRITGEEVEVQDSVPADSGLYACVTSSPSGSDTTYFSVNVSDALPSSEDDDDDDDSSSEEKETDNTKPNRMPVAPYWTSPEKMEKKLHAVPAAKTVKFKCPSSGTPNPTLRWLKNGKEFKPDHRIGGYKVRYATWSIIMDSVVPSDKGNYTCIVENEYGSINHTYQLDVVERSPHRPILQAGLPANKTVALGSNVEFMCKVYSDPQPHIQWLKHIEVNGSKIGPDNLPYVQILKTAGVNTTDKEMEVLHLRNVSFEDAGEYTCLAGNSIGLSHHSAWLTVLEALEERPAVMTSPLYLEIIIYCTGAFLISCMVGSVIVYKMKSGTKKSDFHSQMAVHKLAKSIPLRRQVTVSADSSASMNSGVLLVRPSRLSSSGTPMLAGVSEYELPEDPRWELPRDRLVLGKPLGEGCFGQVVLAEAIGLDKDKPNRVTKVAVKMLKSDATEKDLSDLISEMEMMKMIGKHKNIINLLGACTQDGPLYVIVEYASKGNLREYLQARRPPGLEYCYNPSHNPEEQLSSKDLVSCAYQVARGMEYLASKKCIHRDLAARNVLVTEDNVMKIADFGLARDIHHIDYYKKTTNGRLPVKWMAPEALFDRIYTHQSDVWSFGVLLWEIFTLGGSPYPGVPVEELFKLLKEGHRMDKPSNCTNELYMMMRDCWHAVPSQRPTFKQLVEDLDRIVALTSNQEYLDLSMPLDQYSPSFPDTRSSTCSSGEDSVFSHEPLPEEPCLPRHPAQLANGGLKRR

Sequence | phosphorylation enrichment
KLQQWYREPRS [GPI_Y17_H20P] | 0.36
EESREYDRLFE [PIK3R1_Y463_K459E_YF] | 0.609
LQEQNYPAVDS [FAM114A1_Y115_L116P] | 0.988
PDKRIYQFTAS [SKAP2_Y197_A202S] | 0.831
VTRAKYFIRDE [GNAS_Y339] | 0.45
CLAQRYLIWEC [SCN5A_Y694_R689C] | 0.693
HVLEEYKPKQG [SAXO2_Y37_P34L] | 0.656
NRSSLYLVAGP [KIAA1614_Y1083] | 0.556
PQAVTYAEVKH [LILRB4_Y360_K362E] | 0.692
CTTIPYNYMCN [TP53_Y234_H233P] | 0.543
YGSSSYRGAGG [RPA2_Y14_G15R] | 0.343
SVSVNYGDQVQ [GRAP_Y101] | 0.481
MSNVPYVMNRG [ACAT1_Y161] | 0.464
MARDIYQASFF [LTK_Y672_R673Q_YF] | 0.679
AIYEGYALPHA [ACTC1_Y171_P166A] | 0.761
QPDFLYDHIQP [TRRAP_Y862] | 0.622
LGSVVYAHSKE [KCNQ2_Y226] | 0.445
NAGDFYDLFGG [PTPN11_Y63_T59A_YF] | 0.455
ECKETYHEGEC [PRKN_Y372_A371T] | 0.721
FPRAWCRRSIA [KIAA1109_Y4272_Y4272C] | 0.48
PLDGGYFTLQI [TP53_Y327_E326G] | 1.67
QCTSAYPLQPE [NANS_Y188] | 0.616
CQLENYCNGGG [INS_Y108_Y103C] | 0.573
QSSEGYGLGDR [KIAA1210_Y564] | 0.538
FGAHNYHPLPV [OAT_Y55_YF] | 6.41
ALAHKYDGGGG [HBB_Y146_H147D] | 0.751
YSGDYYRIQGR [DDR2_Y741] | 12.1
FGEFRYRSVIK [CFTR_Y517_D513G_YF] | 0.44
EKRDAYVSRLN [GSR_Y150] | 0.418

Reference: the supplement of paper PMC10065799, “High-throughput profiling of sequence recognition by tyrosine kinases and SH2 domains using bacterial peptide display” (eLife, 2023)
